Source: paper PMC5323203

Molecular target: GST-Foxp1 fusion protein (mouse) (mouse) (UniProt P58462)
Test: pull-down; GST or GST-Foxp1 from bacterial extracts immobilised on GSH-agarose beads and washed; 1 ul of 35S-labelled in vitro translated Ikaros in 200 ul 0.02 M HEPES-KOH pH 7.9, 0.1% NP-40, 0.15 M NaCl, 1 mM DTT, 1 h at 4°C; quantified relative to input and to wild type (100%)

Chain of UniProt P58462 (P58462 whole entry, the tested form may be a part): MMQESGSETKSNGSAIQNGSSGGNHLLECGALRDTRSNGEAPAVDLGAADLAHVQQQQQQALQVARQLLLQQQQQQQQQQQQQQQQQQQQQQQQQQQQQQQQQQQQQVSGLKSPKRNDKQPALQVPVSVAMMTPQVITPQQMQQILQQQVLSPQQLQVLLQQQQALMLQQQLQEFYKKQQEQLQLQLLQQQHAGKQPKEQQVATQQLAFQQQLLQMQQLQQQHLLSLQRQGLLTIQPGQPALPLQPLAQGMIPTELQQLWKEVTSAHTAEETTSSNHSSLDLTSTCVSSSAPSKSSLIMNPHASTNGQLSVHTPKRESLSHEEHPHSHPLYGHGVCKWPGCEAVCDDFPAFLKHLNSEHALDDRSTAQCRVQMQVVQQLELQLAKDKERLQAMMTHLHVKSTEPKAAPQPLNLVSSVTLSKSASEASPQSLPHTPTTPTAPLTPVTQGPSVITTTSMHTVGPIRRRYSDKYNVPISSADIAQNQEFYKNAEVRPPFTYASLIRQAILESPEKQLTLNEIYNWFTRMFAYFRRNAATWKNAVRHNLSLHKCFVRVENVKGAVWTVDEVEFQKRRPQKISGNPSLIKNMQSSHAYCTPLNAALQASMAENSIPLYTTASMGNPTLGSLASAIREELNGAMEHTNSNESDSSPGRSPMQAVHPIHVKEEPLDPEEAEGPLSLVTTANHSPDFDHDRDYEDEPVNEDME

| reduction relative to wild-type binding [%] | Substance |
| --- | --- |
| 40 | IKΔ235-362 (mouse Ikaros deletion; in vitro translated) (domain or fragment) |
| 50 | IKΔC458 (mouse Ikaros deletion of the two C-terminal zinc fingers; in vitro translated) (domain or fragment) |
